Assay [1] concerns the target T1, Human c-Met-Flis-Fc ECD (human).
T1 construct: also called human c-Met extracellular domain (ECD)-Fc-Flis fusion; Human cMet-ECD-Fc-Flis
Kind of assay: ELISA, coated ECD-Fc, antibody 0.002 ng/mL. As to the method:
(§1) Wells of 96-well EIA/RIA high binding plates (Costar, #2592) are coated with 100 μL of 1 μg/mL human c-Met extracellular domain (ECD)-Fc-Flis fusion (SEQ ID NO:72), RON-ECD-Fc (R&D Systems, #1947-MS), or PlexinA2-ECD-Fc (Abnova, Taipei, Taiwan #H00005362-P01) in coating buffer (BioFX Labs, # COAT-1000-01) overnight at 4° C. […] After the plates are washed, 100 μL/well of substrate solution (BioFx, #TMBW-1000-01) are added and the plates are incubated for 10 min. at room temperature. 100 μL/well of stop solution (BioFx, # LSTP-1000-01) are added to stop the reaction. The colorimetric signals are developed and read at 450 nm using a SpectraMax 190 plate reader (Molecular Devices, Sunnyvale, Calif.). c-Met antibody binding to c-Met, RON and PlexinA2 ECDs is proportional to color signal production.
(In an ELISA, binding on a coated surface is turned into a signal by an enzyme label.)

Another assay deals with T2, RON-ECD-Fc (human, UniProt Q04912 25-957).
T2 construct: extracellular domain; Bought reagent; not shown: Fc part of the bought fusion
T2 sequence (looked up): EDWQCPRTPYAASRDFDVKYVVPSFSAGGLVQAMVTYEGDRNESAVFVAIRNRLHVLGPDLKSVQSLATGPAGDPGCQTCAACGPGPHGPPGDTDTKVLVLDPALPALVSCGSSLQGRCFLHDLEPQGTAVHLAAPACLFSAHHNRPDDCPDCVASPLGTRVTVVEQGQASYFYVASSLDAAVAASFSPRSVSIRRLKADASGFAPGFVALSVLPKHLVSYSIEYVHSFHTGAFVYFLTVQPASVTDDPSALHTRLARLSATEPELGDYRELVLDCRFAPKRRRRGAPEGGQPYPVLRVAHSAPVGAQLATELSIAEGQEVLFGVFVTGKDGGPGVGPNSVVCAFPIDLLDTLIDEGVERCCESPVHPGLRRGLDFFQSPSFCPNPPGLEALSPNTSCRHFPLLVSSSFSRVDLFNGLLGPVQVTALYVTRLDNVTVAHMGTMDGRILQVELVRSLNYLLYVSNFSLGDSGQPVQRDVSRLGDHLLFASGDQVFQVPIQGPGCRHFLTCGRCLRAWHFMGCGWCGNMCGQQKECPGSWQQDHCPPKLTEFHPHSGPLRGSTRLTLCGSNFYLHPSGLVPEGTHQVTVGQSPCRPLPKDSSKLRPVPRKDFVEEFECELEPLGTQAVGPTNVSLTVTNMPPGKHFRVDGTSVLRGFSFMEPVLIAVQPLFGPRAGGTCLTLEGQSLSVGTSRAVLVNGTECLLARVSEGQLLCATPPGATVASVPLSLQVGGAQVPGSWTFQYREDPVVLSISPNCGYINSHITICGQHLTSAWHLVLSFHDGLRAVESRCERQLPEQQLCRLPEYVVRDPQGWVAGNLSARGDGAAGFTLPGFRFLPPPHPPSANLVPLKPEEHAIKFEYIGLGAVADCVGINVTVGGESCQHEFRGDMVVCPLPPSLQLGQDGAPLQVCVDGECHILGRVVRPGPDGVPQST
The assay can be described thus: ELISA, coated ECD-Fc, antibody 0.002 ng/mL. Here is the method:
as §1

Assay [2] addresses T1, Human c-Met-Flis-Fc ECD. Kind of assay: SPR Biacore, antibody captured, ECD-Fc analyte, 1:1 model. As to the method: (§2) A Biacore® 2000 instrument is used to measure the binding kinetics of c-Met antibodies to human, cynomolgus monkey, and rat c-Met ECDs. Measurements are performed at 25° C. Samples are dissolved in HBS-EP buffer (150 mM sodium chloride, 3 mM EDTA, 0.005% (w/v) surfactant P-20, and 10 mM N-2-hydroxyethylpiperazine-N′-2-ethanesulfonic acid (HEPES) at pH 7.4; #BR-1001-88).
(§3) Binding is evaluated using multiple cycles. Each cycle is performed at a flow rate of 50 μL/min., and consists of the following steps: injection of about 10 μL of a c-Met antibody at 10 μg/mL aiming at a capture of 40-100 RUs, injection of 250 μL of human, cynomolgus, or rat c-Met-Flis-Fc ECD (starting at 100 nM and using two-fold serial dilutions for each cycle) followed by 20 min. for dissociation, and regeneration using about 30 μL of 10 mM glycine hydrochloride, pH 1.5. Association and dissociation rates for each cycle are evaluated using a “1:1 (Langmuir) binding” model in the BIAevaluation software, version 4.1.
(In SPR one partner is held on a chip, and binding of the other changes the refractive index at the surface.)

Assay [3] has as its target T3, Cynomolgus Monkey c-Met-Flis-Fc ECD (cynomolgus monkey).
T3 construct: also called Cynomolgus Monkey cMet-ECD-Fc-Flis; cynomolgus monkey c-Met ECD
The description is as above. As to the method:
as §2, §3

The Kd is the equilibrium constant for the complex coming apart. The koff is a measure of how fast the partners let go of each other. In general, kon refers to a measure of how fast the partners come together.

T3 sequence (chain, as listed by the source limits assumed): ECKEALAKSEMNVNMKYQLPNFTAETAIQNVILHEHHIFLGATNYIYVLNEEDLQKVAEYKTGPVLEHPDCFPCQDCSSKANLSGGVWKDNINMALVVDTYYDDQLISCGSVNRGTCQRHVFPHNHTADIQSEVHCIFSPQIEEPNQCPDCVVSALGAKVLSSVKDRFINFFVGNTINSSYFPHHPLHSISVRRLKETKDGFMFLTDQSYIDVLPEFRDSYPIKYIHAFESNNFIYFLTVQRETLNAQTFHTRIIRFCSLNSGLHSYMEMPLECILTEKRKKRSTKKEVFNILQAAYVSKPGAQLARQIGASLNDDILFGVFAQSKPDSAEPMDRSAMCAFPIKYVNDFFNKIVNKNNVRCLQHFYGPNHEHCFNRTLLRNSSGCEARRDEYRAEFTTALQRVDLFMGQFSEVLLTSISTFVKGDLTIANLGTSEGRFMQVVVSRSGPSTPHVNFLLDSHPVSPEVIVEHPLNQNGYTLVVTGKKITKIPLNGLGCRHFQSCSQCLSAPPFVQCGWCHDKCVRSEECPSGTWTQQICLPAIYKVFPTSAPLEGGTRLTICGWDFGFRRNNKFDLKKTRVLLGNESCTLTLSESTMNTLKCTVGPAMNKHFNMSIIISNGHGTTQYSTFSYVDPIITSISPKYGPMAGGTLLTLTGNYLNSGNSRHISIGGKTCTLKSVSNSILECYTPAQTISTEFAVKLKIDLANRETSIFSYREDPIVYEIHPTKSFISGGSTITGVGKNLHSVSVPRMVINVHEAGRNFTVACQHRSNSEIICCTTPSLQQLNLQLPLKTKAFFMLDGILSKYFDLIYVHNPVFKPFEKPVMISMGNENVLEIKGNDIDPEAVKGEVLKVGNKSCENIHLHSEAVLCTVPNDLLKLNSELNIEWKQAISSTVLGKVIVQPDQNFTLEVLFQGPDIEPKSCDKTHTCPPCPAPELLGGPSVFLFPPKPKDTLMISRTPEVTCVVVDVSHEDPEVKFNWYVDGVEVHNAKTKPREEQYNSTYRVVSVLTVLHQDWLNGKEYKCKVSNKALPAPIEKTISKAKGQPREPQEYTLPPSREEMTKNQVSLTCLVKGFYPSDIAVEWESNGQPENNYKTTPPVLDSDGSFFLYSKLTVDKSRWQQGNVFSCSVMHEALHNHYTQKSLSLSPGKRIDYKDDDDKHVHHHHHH
T1 sequence (chain, as listed by the source limits assumed): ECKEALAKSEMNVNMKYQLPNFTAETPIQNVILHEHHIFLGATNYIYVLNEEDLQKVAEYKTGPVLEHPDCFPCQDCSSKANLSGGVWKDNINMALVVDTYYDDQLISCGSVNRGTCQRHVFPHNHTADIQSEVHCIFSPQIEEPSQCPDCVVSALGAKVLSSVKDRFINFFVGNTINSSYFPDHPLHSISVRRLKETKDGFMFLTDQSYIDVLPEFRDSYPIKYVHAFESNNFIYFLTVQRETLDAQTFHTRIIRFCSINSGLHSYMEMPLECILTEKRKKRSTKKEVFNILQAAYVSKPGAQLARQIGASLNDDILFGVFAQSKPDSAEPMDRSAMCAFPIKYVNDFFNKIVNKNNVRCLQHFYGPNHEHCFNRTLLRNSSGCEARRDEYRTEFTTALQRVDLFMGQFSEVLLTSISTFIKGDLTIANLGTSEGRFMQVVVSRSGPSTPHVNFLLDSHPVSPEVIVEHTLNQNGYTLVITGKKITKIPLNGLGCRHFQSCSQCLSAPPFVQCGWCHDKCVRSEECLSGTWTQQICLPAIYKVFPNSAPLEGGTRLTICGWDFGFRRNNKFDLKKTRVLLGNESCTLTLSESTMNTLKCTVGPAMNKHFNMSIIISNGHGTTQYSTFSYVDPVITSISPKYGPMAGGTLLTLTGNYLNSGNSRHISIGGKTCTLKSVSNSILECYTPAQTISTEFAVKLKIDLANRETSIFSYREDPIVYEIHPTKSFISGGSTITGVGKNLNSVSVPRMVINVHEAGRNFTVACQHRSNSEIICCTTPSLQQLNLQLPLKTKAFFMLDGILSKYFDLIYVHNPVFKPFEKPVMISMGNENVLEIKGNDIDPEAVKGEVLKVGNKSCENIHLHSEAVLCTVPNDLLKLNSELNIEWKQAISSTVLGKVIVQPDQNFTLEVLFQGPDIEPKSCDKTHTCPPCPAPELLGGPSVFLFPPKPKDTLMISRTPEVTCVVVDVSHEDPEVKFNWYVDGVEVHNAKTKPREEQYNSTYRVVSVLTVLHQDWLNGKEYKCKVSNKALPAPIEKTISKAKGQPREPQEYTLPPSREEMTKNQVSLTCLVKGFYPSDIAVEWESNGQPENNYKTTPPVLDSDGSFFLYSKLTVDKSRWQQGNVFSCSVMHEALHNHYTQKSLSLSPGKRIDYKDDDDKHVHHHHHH

B1: C8-6 (antibody, human IgG2, kappa, V domains shown)
VH: QVQLVQSGAEVKKPGASVKVSCKASGYTFTDYYMHWVRQAPGQGLEWMGRVNPNRGGTTYNQKFEGRVTMTTDTSTSTAYMELRSLRSDDTAVYYCARTNWLDYWGQGTTVTVSS
VL: DIQMTQSPSSLSASVGDRVTITCSVSSSVSSIYLHWYQQKPGKAPKLLIYSTSNLASGVPSRFSGSGSGTDFTLTISSLQPEDFATYYCIQYSGYPLTFGGGTKVEIKR
notes: Called IgG4, kappa; also called Mab C8-6
For the molecule B1, the “Average A450 nm” value in the assay with Human c-Met-Flis-Fc ECD [1] was found to be 0.326 A450 nm; with RON-ECD-Fc it was 0.106 A450 nm. Moreover, the Kd with Human c-Met-Flis-Fc ECD [2] turned out to be 4 nM; in assay [3] it was 3.6 nM. The off-rate constant (koff) in the assay with Human c-Met-Flis-Fc ECD [2] came out at 0.0003 s⁻¹; in assay [3], 0.00045 s⁻¹. In addition, the kon with Human c-Met-Flis-Fc ECD [2] was 160000 M⁻¹ s⁻¹; in assay [3], 140000 M⁻¹ s⁻¹.

The values above are taken from patent US20100129369A1 (Eli Lilly, published 2010).
